Laboratory results reported in the supplement of paper PMC10126150.
± gives the standard deviation of the averaged measurements.

System: ATP
Assay: switch fluorescence ratio, 500 uM ATP over buffer (Cy3 cluster intensity, sum of 5 cycles each) (fold (ratio)); higher = stronger signal-on switching upon ATP binding; sequences stand for … in TCGTCGGCAGCGTCAGATGTGTATAAGAGACAGTTTTTTTTTTTTTTTTTTTTTTTTT…TC
Details: aptamer strand: ATP DNA aptamer (quencher-CACCTGGGGGAGTATTGCGGAGGAAGG + anchor), 100 nM annealed; ATP concentration: 500 uM
Summary of the method: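 For every switch-domain sequence, the fluorescence ratio is the mean of per-cluster values, each being summed target-cycle Cy3 intensity over summed buffer-cycle Cy3 intensity. Clusters outside 100-1000 RFU were excluded. On a modified Illumina MiSeq flow-cell, the Cy3-labelled switching-strand clusters were annealed to 100 nM quencher-labelled ATP aptamer, imaged in selection buffer and then after 15 min with 500 uM ATP at 22 °C. Five such cycles were run, with NaOH stripping and re-annealing between them.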
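Further: ATP exposure 15 min at 22 °C before imaging.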

Sequence | switch fluorescence ratio
TAAGGGGGT | 1 ± 0.031
TAAGGGGTAA | 0.947 ± 0.019
TAAGGGGTTA | 0.992 ± 0.029
TAAGGGTTGC | 1.03 ± 0.016
TAAGGGTTGG | 0.978 ± 0.03
TAAGGTAATA | 1.03 ± 0.051
TAAGGTAGG | 0.967 ± 0.029
TAAGGTGGGT | 1.002 ± 0.0017
TAAGTAAATA | 0.9762 ± 0.004
TAAGTCCTGT | 0.998 ± 0.033
TAAGTGCCAA | 1.01 ± 0.032
TAAGTGGAAA | 0.992 ± 0.05
TAAGTGGAAT | 0.999 ± 0.022
TAAGTGGGGT | 0.979 ± 0.026
TAAGTTAAGC | 1 ± 0.064
TAAGTTAGTT | 0.979 ± 0.027
TAAGTTATAG | 1.02 ± 0.042
TAAGTTATTT | 0.986 ± 0.031
TAAGTTTGTG | 0.996 ± 0.05
TAATAATATT | 1 ± 0.018
TAATAATTAA | 0.992 ± 0.024
TAATACGAGT | 1.02 ± 0.014
TAATACTGAA | 1.01 ± 0.029
TAATACTTTT | 1.07 ± 0.098
TAATAGAGGG | 1.03 ± 0.027
TAATAGGAAG | 1.26 ± 0.43

Sequence | switch fluorescence ratio
TAATAGGCTT | 1.01 ± 0.027
TAATAGGGGC | 0.991 ± 0.05
TAATAGGGTG | 1.08 ± 0.042
TAATAGGGTT | 1.01 ± 0.027
TAATAGTAGT | 0.997 ± 0.022
TAATAGTATA | 1 ± 0.013
TAATAGTGGC | 1.06 ± 0.068
TAATAGTGGG | 1.03 ± 0.041
TAATATCCTA | 1 ± 0.048
TAATATGGAG | 0.99 ± 0.034
TAATATTTAG | 0.9863 ± 0.0031
TAATATTTT | 0.966 ± 0.035
TAATCACGGG | 1.09 ± 0.017
TAATCAGTAG | 1.02 ± 0.015
TAATCCACGG | 1.05 ± 0.064
TAATCGAAGC | 1 ± 0.048
TAATCGGGCG | 1.02 ± 0.022
TAATCTTTTG | 0.986 ± 0.026
TAATGAAAAA | 1 ± 0.039
TAATGAGGAA | 1.004 ± 0.01
TAATGAGGCT | 1.03 ± 0.014
TAATGAGGTG | 1.04 ± 0.023
TAATGAGTGC | 0.997 ± 0.04
TAATGCCTGT | 0.979 ± 0.021
TAATGCTAAT | 1.07 ± 0.073
TAATGGTGTG | 1 ± 0.022

Sequence | switch fluorescence ratio
TAATGGTTAG | 1.016 ± 0.0048
TAATGTGGTT | 0.989 ± 0.033
TAATGTTCTC | 1.02 ± 0.011
TAATGTTGCA | 1.02 ± 0.029
TAATTAACAT | 0.9883 ± 0.0092
TAATTAACTT | 1.09 ± 0.12
TAATTAATAC | 1.08 ± 0.017
TAATTAATAT | 1 ± 0.048
TAATTACTCA | 1.045 ± 0.01
TAATTAGAGT | 0.967 ± 0.046
TAATTAGTTT | 0.982 ± 0.015
TAATTATGCC | 1.05 ± 0.04
TAATTATTTT | 1.01 ± 0.03
TAATTCAGGT | 1 ± 0.011
TAATTCGTAC | 1.07 ± 0.078
TAATTCTTAG | 0.989 ± 0.02
TAATTGAAAA | 1.14 ± 0.15
TAATTGCGGG | 0.9554 ± 0.0095
TAATTGTTGC | 0.969 ± 0.016
TAATTTAGAT | 1.028 ± 0.0095
TAATTTCAAG | 1.014 ± 0.0039
TAATTTCTGG | 0.9896 ± 0.0085
TAATTTTGTG | 0.975 ± 0.044
TACAAAGGGA | 1.01 ± 0.027
TACAACTCTC | 0.963 ± 0.077
TACAAGGCTT | 0.993 ± 0.027

Sequence | switch fluorescence ratio
TACAAGTTCT | 0.9814 ± 0.0042
TACACGGTCA | 1.047 ± 0.0054
TACACTTCTC | 1.08 ± 0.025
TACAGAATCG | 1.014 ± 0.0014
TACAGCGCGT | 1.01 ± 0.021
TACAGGCGGA | 1.02 ± 0.021
TACAGGGAAC | 0.974 ± 0.014
TACATAGTTC | 1.032 ± 0.0018
TACATTAATT | 1.02 ± 0.047
TACATTGGGC | 1 ± 0.013
TACCAAGTCC | 1.05 ± 0.061
TACCAGCGCT | 0.993 ± 0.058
TACCAGGGAT | 1.1 ± 0.14
TACCATTTAG | 0.997 ± 0.025
TACCCCCGTT | 1.36 ± 0.041
TACCGGCTCA | 0.999 ± 0.017
TACCGGGGC | 1.06 ± 0.033
TACCGGGGGG | 1.03 ± 0.029
TACCGGGGTA | 1.01 ± 0.03
TACCGGTCGG | 0.999 ± 0.019
TACCGTACGA | 1.5 ± 0.019
TACCGTTTGC | 1.19 ± 0.089
TACCTAGGGG | 1.06 ± 0.039
TACCTCTTAA | 1.05 ± 0.026
TACCTTCTTG | 1.176 ± 0.0027
TACGAAAAGA | 1.04 ± 0.052

Sequence | switch fluorescence ratio
TACGAAGTCG | 1.0075 ± 0.00084
TACGAATAAT | 1.1 ± 0.075
TACGAGGGGA | 1.03 ± 0.026
TACGAGGGTC | 0.969 ± 0.024
TACGAGGGTG | 1.06 ± 0.034
TACGATACTC | 1.62 ± 0.026
TACGATGAGG | 1.05 ± 0.018
TACGATTGGA | 1.034 ± 0.0011
TACGATTTGG | 0.993 ± 0.0027
TACGCATTTG | 1.08 ± 0.011
TACGCCATAT | 1.46 ± 0.18
TACGCCGGTA | 0.961 ± 0.032
TACGCGATTT | 1.09 ± 0.08
TACGGAGTGG | 1.06 ± 0.026
TACGGATACA | 1.18 ± 0.048
TACGGCGGAA | 1.02 ± 0.047
TACGGCTATC | 1.16 ± 0.047
TACGGGACGC | 1.12 ± 0.047
TACGGGACGG | 1.07 ± 0.023
TACGGGATGT | 1.046 ± 0.0092
TACGGGGACT | 1.11 ± 0.028
TACGGGGGAG | 0.995 ± 0.02
TACGGGGGGG | 1.07 ± 0.074
TACGGGGTAA | 0.995 ± 0.022
TACGGGGTGC | 1.07 ± 0.095
TACGGGTGCT | 1.16 ± 0.16

Sequence | switch fluorescence ratio
TACGGTCGAG | 1.1 ± 0.082
TACGGTGTGC | 0.989 ± 0.024
TACGGTTCGC | 1.02 ± 0.019
TACGTAGGGT | 1.19 ± 0.28
TACGTATTCC | 1.171 ± 0.011
TACGTCACCT | 1.71 ± 0.048
TACGTCGCTG | 0.971 ± 0.023
TACGTCTTAG | 0.972 ± 0.048
TACGTGTTTT | 1 ± 0.0081
TACGTTGAAA | 1.17 ± 0.19
TACGTTGGGG | 1 ± 0.028
TACGTTTTCT | 1.02 ± 0.049
TACTAATTGG | 0.9961 ± 0.0086
TACTACGTGC | 1.28 ± 0.019
TACTAGGCAA | 1.21 ± 0.04
TACTATACGA | 1.367 ± 0.0015
TACTCCATAT | 1.14 ± 0.019
TACTCGTGGT | 1 ± 0.064
TACTCTGAAA | 2.38 ± 0.48
TACTCTGGAA | 4.15 ± 0.18
TACTGAGTTA | 1 ± 0.015
TACTGATTCA | 1.02 ± 0.025
TACTGCATAG | 1.044 ± 0.0091
